From patent publication US12269859B2, “Synthetic immune receptors and methods of use thereof” (Angeles Therapeutics, Inc., priority 2016, dated 2025)

System: target antigen-expressing cell line
Experiment: Jurkat NFAT-GFP assay, coculture with target cell lines expressing the respective target antigen (summary Table 10A)
Type: cell-based, human
Parameters: key: The signs +/−, +, 2+ etc. after the name of the cell lines indicate the relative degree of positivity on the Jurkat-NFAT-GFP assay as measured by the % GFP positive cells; +: relative degree of positivity on the Jurkat-NFAT-GFP assay as measured by the % GFP positive cells; 2+: relative degree of positivity on the Jurkat-NFAT-GFP assay as measured by the % GFP positive cells
Details: relative % GFP positive cells
Procedure: (B) Induction of NFAT promoter driven GFP expression. The control vector- and SIR-expressing Jurkat-NFAT-GFP cocultured for 4-24 hours with the target antigen-expressing cell line (described above) and their ability to bind to the target antigen is assayed by measuring induction of GFP expression using Flow Cytometry. Cellular supernatant is collected and assayed for the induction of cytokines (e.g., IL2).
Jurkat NFAT-GFP Assay For Synthetic Immune Receptors. The Jurkat-NFAT-GFP cells are engineered in such a way that the IL-2 promoter, which carries NFAT binding sites, is cloned upstream of the GFP gene. These cells have been used to study signaling via TCR and CAR. The different SIRs were stably expressed in Jurkat NFAT-GFP cells by lentiviral mediated gene transfer, followed by selection with puromycin. The SIR-expressing Jurkat-NFAT-GFP cells were cocultured with the target cells at E:T ratio of approximately 1:2 for approximately 4 hours to 18 hours. When the interaction between SIRs and their target antigen results in activation of the NFAT pathway, GFP expression is induced.
Induction of GFP expression by coculturing of Jurkat-NFAT-GFP cells expressing different SIR constructs and the different target cells was studied essentially as described previously (Wu, Roybal, Puchner, Onuffer, & Lim, 2015). GFP expression was monitored by FACS analysis. A few representative examples of this assay are shown in the FIG. 13A-B. In panel A, control Jurkat-NFAT-GFP cells or those expressing SIRs targeting CD19 (clone ID 051716-I08), MPL (Clone ID: 040716-A07) and BCMA (Clone ID: 011116-A07) were incubated with RAJI (top), HEL (middle) or U266 (bottom) cells, respectively. […] In panel B, Jurkat cells expressing SIR targeting CDH6 (Clone ID: 051716-J05), CD276 (Clone ID: 050516-Q06) and Her2/neu (Clone ID: 050516-I03) were incubated with SKOV3 (top) and […] (middle and bottom) cells, respectively. […] The Jurkat-NFAT-GFP cells were engineered to express different SIRs targeting other antigens and the experiment repeated upon coculture with the target cells expressing their respective target antigen. The Jurkat-NFAT-GFP (parental) cells were used as control. The names of different SIRs, their SEQ ID NOs, component antigen binding domains and TCR chains can be determined by reference to Tables 7A-7H. A SIR is considered positive in the assay in case the SIR expressing Jurkat-NFAT-GFP cells show greater % GFP positive cells when cultured with the target cell line as compared to parental Jurkat-NFAT-GFP cells. […] The signs +/−, +, 2+ etc. after the name of the cell lines indicate the relative degree of positivity on the Jurkat-NFAT-GFP assay as measured by the % GFP positive cells after culture of the SIR expressing Jurkat-NFAT-GFP cells with that cell line. […] In addition, great diversity of response against the same target cell line is observed with Jurkat cells expressing SIRs containing different antigen binding domains targeting the same antigen (e.g., SIRs having antigen binding domains derived form different CD19 antibodies) even when the SIRs share the same TCR chains and linkers. Finally, Jurkat cells expressing SIRs targeting different antigens (e.g. CD19 vs CD20) show a diversitiy of response when exposed to the same target cell line. Thus, a diverse immune response can be generated against a single target cell by combining SIRs with different TCR chains, linkers, antigen binding domains and target specificity. Table 10A also summarizes the results of GLuc based T cell cytotoxicity assay observed with different SIRs when exposed to their target cell lines. […]

B1: 051816-Z01 (protein)
chain: MALPVTALLLPLALLLHAARPDVQMIQTPSSLSASLGDRVTISCRASQDIGNYLNWYQQKPDGTVKLLIYYTSRLHSGVPSRFSGSGSGTEYSLTISNLEQEDIATYFCQQGSALPPTFGGGTKLEINLEGKPIPNPLLGLDSTGSGEDLKNVFPPEVAVFEPSKAEIAHTQKATLVCLATGFYPDHVELSWWVNGKEVHSGVCTDPQPLKEQPALNDSRYCLSSRLRVSATFWQNPRNHFRCQVQFYGLSENDEWTQDRAKPVTQIVSAEAWGRADCGITSASYHQGVLSATILYEILLGKATLYAVLVSALVLMAMVKRKDSRGRAKRSGSGATNFSLLKQAGDVEENPGPTSMDWIWRILFLVGAATGAHSFEALQLQQSGAELVRPGASVTLSCKASGYTFTDYEMHWVKQTPVHGLEWIGAIDPETGGTAYNQKFEGKAILTADKSSSTAYMELRSLTSEDSPVYYCARRRYYGSSSFDYWGQGTTLTVSSTREQKLISEEDGSGIQNPDPAVYQLRDSKSSDKSVCLFTDFDSQTNVSQSKDSDVYITDKCVLDMRSMDFKSNSAVAWSNKSDFACANAFNNSIIPEDTFFPSSDVPCDVKLVEKSFETDTNLNFQNLSVIGFRILLLKVAGFNLLMTLRLWSSRAKRSGSGVKQTLNFDLLKLAGDVESNPGPSRGHMTEYKPTVRLATRDDVPRAVRTLAAAFADYPATRHTVDPDRHIERVTELQELFLTRVGLDIGKVWVADDGAAVAVWTTPESVEAGAVFAEIGPRMAELSGSRLAAQQQMEGLLAPHRPKEPAWFLATVGVSPDHQGKGLGSAVVLPGVEAAERAGVPAFLETSAPRNLPFYERLGFTVTADVEVPEGPRTWCMTRKPGA
modifications: Synthetic Immune Receptor (SIR)
NFAT-GFP ASSAY Positive Cell lines: LAN5 (SIR-expressing Jurkat-NFAT-GFP cells cocultured with LAN5): LAN5 (2+)

B2: 021317-E02 (protein)
chain: MALPVTALLLPLALLLHAARPLEGKPIPNPLLGLDSTGSGEDLKNVFPPEVAVFEPSKAEIAHTQKATLVCLATGFYPDHVELSWWVNGKEVHSGVCTDPQPLKEQPALNDSRYCLSSRLRVSATFWQNPRNHFRCQVQFYGLSENDEWTQDRAKPVTQIVSAEAWGRADCGITSASYHQGVLSATILYEILLGKATLYAVLVSALVLMAMVKRKDSRGRAKRSGSGATNFSLLKQAGDVEENPGPTSMALPVTALLLPLALLLHAARPQSVLTQPPSVSGAPGQRVTISCTGSSSNIGAGYDVHWYQQLPGTAPKLLIFGNSNRPSGVPDRFSGFKSGTSASLAITGLQAEDEADYFCQSYDSSLSGSGVFGTGTKVTVLGGGGGSGGGGSGGGGSQMQLVQSGGGLVQPGRSLRLSCAASGFTFDDYAMHWVRQAPGKGLEWVSGISWNSGSIGYADSVKGRFTISRDNAKNSLYLQMNSLRAEDTALYYCAKDIHSGSYYGLLYYAMDVWGQGTTVTVSSTREQKLISEEDGSGIQNPDPAVYQLRDSKSSDKSVCLFTDFDSQTNVSQSKDSDVYITDKCVLDMRSMDFKSNSAVAWSNKSDFACANAFNNSIIPEDTFFPSSDVPCDVKLVEKSFETDTNLNFQNLSVIGFRILLLKVAGFNLLMTLRLWSSRAKRSGSGVKQTLNFDLLKLAGDVESNPGPSRGHMTEYKPTVRLATRDDVPRAVRTLAAAFADYPATRHTVDPDRHIERVTELQELFLTRVGLDIGKVWVADDGAAVAVWTTPESVEAGAVFAEIGPRMAELSGSRLAAQQQMEGLLAPHRPKEPAWFLATVGVSPDHQGKGLGSAVVLPGVEAAERAGVPAFLETSAPRNLPFYERLGFTVTADVEVPEGPRTWCMTRKPGA
NFAT-GFP ASSAY Positive Cell lines: HepG2 (SIR-expressing Jurkat-NFAT-GFP cells cocultured with HepG2): HepG2 (+)
